Reference: the nanobody polyreactivity screen of Harvey et al. (2022)

Test: yeast display, Sf9 membrane polyspecificity reagent, FACS + sequencing; frameworks hold sequencing errors
Method in brief: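 Polyreactivity labels are assigned by the sorting gate from which each nanobody was recovered. The gates were low and high (top ~1%), set on anti-HA fluorescence for expression and streptavidin fluorescence for reagent binding. Before sorting, galactose-induced (36–48 hours) yeast display cells were stained for 1 hour at 4 °C with 10% biotinylated, detergent-solubilized Sf9 membrane reagent.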

Sequence	polyreactivity (PSR sort gate)
QVQLVESGGGLVQAGGSLRLSCAASGFIVRRYAMGWYRQAPGKERELVAAITSSGTSTYYADSVKGRFTISRDTAKYTVYLQMNSLKPEDTAVYYCAAVYQYTHYYSNYRYWGQGTQVTVSS	high polyreactivity
QVQLVESGGGLVQAGGSLRLSCAASGFIYARYAMGSYRQAPGKERELLAAISWSGARTYYADSVKGRFTISRDNAKNTVYLQMNSLKAEDTAVYYCAARRLSYSYDYWGQGTQVSVSS	high polyreactivity
QVQLVESGGGLVQAGGSLRLSCAASGFIYGKNAMGWYRQAPGKERELVAAISQRGGSTYYADSVKGRFTISRDTAKNTVYLQMNSLKPEDTAVYYCAADGRRVVARYDYWGQVTQVTVSS	high polyreactivity
QVQLVESGGGLVQAGGSLRLSCAASGFIYGYYAKGWYRQAPGKARELVAAISYSGGSTYYADSVKGRFTISRDNAKNTVYLQKNSLKPEDSAVYYCAAVYLGYIYSRYDYWGQGTQVTVSS	low polyreactivity
QVQLVESGGGLVQAGGSLRLSCAASGFIYHTNAMGWYRPAPGKERELVAAISDSADITHYADSVKGRFTISRDYAKNTVYLQMNSLKPEDTAVYYCNTTGDPPAYDFAFEDWGQGTQVTVSS	low polyreactivity
QVQLVESGGGLVQAGGSLRLSCAASGFIYSAYAMGWYRQAPGKERELVAAISYSGGTTYYADSVKGRFTISRDNAKNTVYLQMNSLKPEDTAVYYCAAGVGYWGQGTQVTVSS	high polyreactivity
QVQLVESGGGLVQAGGSLRLSCAASGFIYTRNAMGWDRQAPGQERELVAAITSSGGSTYYADTVKGRFTISRDNAKNTVYLQMNSLKREDTAVYYCARGKSVGFNYWGQGTQVTVSS	high polyreactivity
QVQLVESGGGLVQAGGSLRLSCAASGFNFARNTMGWYRQAPGKERELVAAISSSGGSTYYADSVKGRFTISRDNAKNTVYLQMNSLKPEDTAVYYCNKGYTGLYGYDYWGQGTQVTVSS	high polyreactivity
QVQLVESGGGLVQAGGSLRLSCAASGFNFGTYAMGWYRQAPGKERELVAAISSGGSTYYADSVKGRFTISRDNAKNTVYLQMNSLKPEDTAVYYCAKEGGTYRIFNYWGQGTQVTVSS	low polyreactivity
QVQLVESGGGLVQAGGSLRLSCAASGFNFQGNAMGWYIQAPGNERELVAAISSDGSTYYADSVKGRFTISRDNAKNTVELQMYSLKPEDTAVYYCAAEWWYYYPGYIITSYDYWGQGTQVTVSS	low polyreactivity
QVQLVESGGGLVQAGGSLRLSCAASGFNFQRYAMGWYRQAPGKERELVAAISVRGTRTYYADSVKGRFTISRDKAKNTVYFQMYSLKPVDTAVYYCNADWERDVQDEYWGQGTHVTVSS	high polyreactivity
QVQLVESGGGLVQAGGSLRLSCAASGFNFTGYTMGWYRQAPGTERELVAAISSSGGSTYYADSVKGRFTISRDNAKNTVYLQMNSLKPEDTAVDYCNAPRYRPGYWYDYWGQGTQVNVSS	high polyreactivity
QVQLVESGGGLVQAGGSLRLSCAASGFNFTHYAMGWYRQAPGKERELVAAISRNGGSTYYADSVKGRFTISRDNAKNTVYLQMNSLKPEDTAVYYCAAVRHGVSLAGYYWGQGTQVTVSS	high polyreactivity
QVQLVESGGGLVQAGGSLRLSCAASGFNFTTYAMGSYRHAPGKERELVAAISGRGGTTDYADSVKGRFTISRDNAKNTVYLHMNSLKPEATAVYYCAADGYPGDDYWGQGTQVTVST	high polyreactivity
QVQLVESGGGLVQAGGSLRLSCAASGFNFYCNAMGWYRQAPGKERELVATIRYRGGRTYYADSVKGRFTISRDNEKNTVYLQMNSLKPEDTAVYYCNTRSVYHRYDYDYWGQGTQVTVSS	high polyreactivity
QVQLVESGGGLVQAGGSLRLSCAASGFNFYSNAMGWYRQEPGKERELVADINRGGTSTYYADSVKGRFTISRDNAKNTVYLQMNSLKPEDTAVYYCNAGLRYRSRLWNIYWYDYWGQGTQVTVSS	high polyreactivity
QVQLVESGGGLVQAGGSLRLSCAASGFNLKWYAMGWYRQAPGKERELVAAINDRGGNTYYADSVKGRFTISRDNAKNTVYLQMNSLKPEDTAVYYCAVRGKTYRPYYYWGQGTQVTVSS	high polyreactivity
QVQLVESGGGLVQAGGSLRLSCAASGFNTRLYAMGWYRQAPGKEREFVAAISWDGTRTYYADSVKGRFTISRDTANKTFYLQMNSLKPEDTAVSYCNARRRQWQARYDYWGQGTQITVSS	high polyreactivity
QVQLVESGGGLVQAGGSLRLSCAASGFNVRYYAMGWYRQAPGKERELVAAISSGGNTRYADSVKGRFTISRDNAKNTVYLQMNSLKPEDTAVYYCARRPGAWKYVYTGDYWGQGTQVTVSS	high polyreactivity
QVQLVESGGGLVQAGGSLRLSCAASGFNYRYYAMGWYRQAPGKERELVAAIDYSGGSTNYADSVKGRFTISRDNAKNTVYLQMNSLNPEDTAVYYCNAEYTWHRGYDYWGQGTQVTVSS	low polyreactivity
QVQLVESGGGLVQAGGSLRLSCAASGFNYSNAMGWYRQAPGKERELVAAITSRGGSTYYADSVKGRFTISRDNAKNTVYLQMNSLKPEDTAVYYCATKVWTRFIYYYWGQGTQVTVSS	high polyreactivity

Sequence	polyreactivity (PSR sort gate)
QVQLVESGGGLVQAGGSLRLSCAASGFSFEGYAMGWYRQAPGKERELVAAISSNGGRTYYADSVKGRFTISRDNAKNTVYVLMNSLKPEDTAVYYCNARRAYSGPDYDYYHGRRYDYWGQGTQVSVSS	low polyreactivity
QVQLVESGGGLVQAGGSLRLSCAASGFSFTNYAMGWYRQAPGKERELVAAINRSGGRTYYADSVKGRFTISRDNAKNTVYLQMNSLKPEDTAVYYCAAYGRYYYIYDYWGQGTQVTVSS	high polyreactivity
QVQLVESGGGLVQAGGSLRLSCAASGFTCTSNAMGWYRQAPGKERELVAAITFTGGRTYYADSVKGRFTISRDNAKNTVYLQMNSLKPEDTAVYYCNRVTAYYPTKFDYWGQGTQVTVSS	high polyreactivity
QVQLVESGGGLVQAGGSLRLSCAASGFTFAFYTMGWYRQAPGKERELVAGITRSGTNTYYADSVKGRFTISRDNSKNTVYLQMNSLKPEDTSVYYCNADPRTGWYKYDYWGQGTQVTVSS	high polyreactivity
QVQLVESGGGLVQAGGSLRLSCAASGFTFAGNAMGWDRPAPGKERELVAGISRRGGNTYYADSVKGRFTISRDTAKNTVYLQMNRLKPEDTAVYYCARYSSSYWGQGTQVTVSS	high polyreactivity
QVQLVESGGGLVQAGGSLRLSCAASGFTFAGNTMGWYRQAPGKERELVAAINSGGSTHYADSVKGRFTISRDNAKNTVYLQMNSLKPEDTAVYYCADYLTRYGAYYWGQGTQVTVSS	high polyreactivity
QVQLVESGGGLVQAGGSLRLSCAASGFTFAHNAMGWYRQATGKERELVAVISWSGGRTYYADSVKGRFTISRDNAMNTVYLQMNSLKPEDTAVYYCATRHSKFSYGYWGQGTQVTVSS	high polyreactivity
QVQLVESGGGLVQAGGSLRLSCAASGFTFAPNAMGWYRQAHGKERELVAAISSASSTYYADSVKGRFTISRDNAKNTVYLQMNSLKPEDTAVYYCAAREGWGFYYWGQGTQGTVSS	high polyreactivity
QVQLVESGGGLVQAGGSLRLSCAASGFTFAPYAMGWYRQAPGKERELVAAISSNGGSTYYADSVKGRFTISRDNAKNTVYLQMNSLKPGDTAVYYCAAPVRQSSYNRYDSWGQGTQVTVSS	high polyreactivity
QVQLVESGGGLVQAGGSLRLSCAASGFTFAQYTMGWYRPAPGKERELVAAIRVGGGSTYYADSVKGRFTISRDNAKNTVYLQMNSLKPEDTAVYYCAKRTYSRKFRGAYNYWGQGTQVTVSS	high polyreactivity
QVQLVESGGGLVQAGGSLRLSCAASGFTFARYAMGWYRQAPGKERELVAAISWSGARTYYADSVKGRFTISRDNAKNTVYLQMNSLKPEDTAVYYCNAVSGSSNFDYWGQGTQVTVSS	high polyreactivity
QVQLVESGGGLVQAGGSLRLSCAASGFTFASNAMGWYRQAPGKERELVAAITWGTGTTSYADSVKGRFTISRDYAKNTVYLQMNSLKPEDTAVYYCNARVGPELHDYWGQGTQVTVSS	low polyreactivity
QVQLVESGGGLVQAGGSLRLSCAASGFTFASNAMGWYRQAPGKERELVADITNTGSTYYADSVKGRFTISRDNAKNTVYLQMNSLKPEDTAVYYCAARSRDVTDGQRISAPHGYWGQGTQVTVSS	low polyreactivity
QVQLVESGGGLVQAGGSLRLSCAASGFTFASYAMGWYRQAPGKERELVAAITRRGGSTNYADSVKGRFTISRDNAKNTVFLQMISLKPEDTAVYYCNDLHGVWDPAYDYWGQGTQVTVSS	low polyreactivity
QVQLVESGGGLVQAGGSLRLSCAASGFTFASYVMGWYRQAPGKERELVASISWSGGRTYYADSVKGRFTISRDNAKNTVYLQMNSLKPEDTAVYYCNVLVTRYSPWFLYNYWGLGTQVTVSS	high polyreactivity
QVQLVESGGGLVQAGGSLRLSCAASGFTFAVNVMGWYIHAPGKEREFDAAISWTGGSTDYADSVKGRFTISLDNAKNTVYLQMNSLKPEDTAVYYCAADYNLRLQPFRKLVGPAGGYWGQGTQLTVSS	low polyreactivity
QVQLVESGGGLVQAGGSLRLSCAASGFTFAVYAMGWYRQAPGKERELVAAISRSGTRTYYADSVKGRFTISRDNAKNTVYLQMNSMKPEDTAVYYCAADKYRHGYDYWGQGTQVTVSS	low polyreactivity
QVQLVESGGGLVQAGGSLRLSCAASGFTFAWNAMGWYRQAPGKERELVATIDVSGGSTYYADSVKGRFTISRDNAKNTVYLQMNILKPEDTAVYYCAADELPEGGYDYWGHGTQVTVSS	low polyreactivity
QVQLVESGGGLVQAGGSLRLSCAASGFTFAYYAMGWYRQAPGKERELVAAISYSGGSTYYADSVKGRFTISRDNAKNTVYLQMNSLKPVDTAVYYCAAEAGRRYNWGYDYWGQGTQVTVSS	high polyreactivity
QVQLVESGGGLVQAGGSLRLSCAASGFTFAYYAMGWYRQAPGKERELVAAITRGGGRTFYADSVKGRFTISRDNAKNTVYLQMNSLKPEDTAVYYCAAVKDTTNSRGYGYWGQGTQVTVSS	high polyreactivity
